Assay results taken from patent US20110300138A1 (published 2011).

Key:
Assay in all cases: cell-based or functional assay
[1] = target: TSHR with Asp43 mutated to Ala, expressed in CHO cells (human) (UniProt P16473)
[2] = target: TSHR with Asp276 mutated to Ala, expressed in CHO cells (human) (UniProt P16473)
[3] = target: TSHR with Tyr185 mutated to Ala (human) (UniProt P16473)
[4] = target: TSHR with Lys58 mutated to Ala expressed in CHO cells (human) (UniProt P16473)
[5] = target: wild type TSHR (human TSH receptor) expressed in CHO cells (human) (UniProt P16473)

Cyclic AMP produced (pmol/mL), TSH (2) 3 ng/mL run at the end of assay, mutated TSHR [1]: 60.3 pmol/mL
Mutated/Wild type (%) of cyclic AMP produced, TSH 0.01 ng/mL [1]: 100%
Mutated/Wild type (%) of cyclic AMP produced, TSH 0.03 ng/mL [1]: 113%
Mutated/Wild type (%) of cyclic AMP produced, TSH 0.1 ng/mL [1]: 119%
Mutated/Wild type (%) of cyclic AMP produced, TSH 0.3 ng/mL [1]: 86%
Mutated/Wild type (%) of cyclic AMP produced, TSH 1 ng/mL [1]: 86%
Mutated/wild type (%) of cyclic AMP produced; TSH 3 ng/mL [1]: 88%
Mutated/wild type (%), TSH (2) 3 ng/mL run at the end of assay [1]: 65%
Cyclic AMP produced (pmol/mL), TSH 0.01 ng/mL [2]: 14.3 pmol/mL
Cyclic AMP produced (pmol/mL), TSH 0.03 ng/mL [2]: 17.6 pmol/mL
Cyclic AMP produced (pmol/mL), TSH 0.1 ng/mL [2]: 21.7 pmol/mL
Cyclic AMP produced (pmol/mL), TSH 0.3 ng/mL [2]: 45.6 pmol/mL
Cyclic AMP produced (pmol/mL), TSH 1 ng/mL [2]: 68.3 pmol/mL
Cyclic AMP produced (pmol/mL), TSH 3 ng/mL [2]: 76 pmol/mL
Experiment 1; % inhibition of TSH stimulation; TSH (2) 3 ng/mL, run at the end of assay [2]: 6%
Experiment 1; Mutated/wild type (%) of cyclic AMP produced; TSH 3 ng/mL [2]: 91%
Experiment 1; Mutated/wild type (%) of cyclic AMP produced; TSH (2) 3 ng/mL, run at the end of assay [2]: 90%
Experiment 1; cyclic AMP produced; TSH 3 ng/mL [2]: 71.2 pmol/mL
Experiment 1; cyclic AMP produced; TSH (2) 3 ng/mL, run at the end of assay [2]: 67 pmol/mL
Experiment 2; % inhibition of TSH stimulation; TSH (2) 3 ng/mL, run at the end of assay [2]: 18%
Experiment 2; Mutated/wild type (%) of cyclic AMP produced; TSH 3 ng/mL [2]: 78%
Experiment 2; Mutated/wild type (%) of cyclic AMP produced; TSH (2) 3 ng/mL, run at the end of assay [2]: 66%
Experiment 2; cyclic AMP produced; TSH 3 ng/mL [2]: 74.8 pmol/mL
Experiment 2; cyclic AMP produced; TSH (2) 3 ng/mL, run at the end of assay [2]: 61.2 pmol/mL
Mutated/Wild type (%), TSH 0.01 ng/mL [2]: 583%
Mutated/Wild type (%), TSH 0.03 ng/mL [2]: 369%
Mutated/Wild type (%), TSH 0.1 ng/mL [2]: 134%
Mutated/Wild type (%), TSH 0.3 ng/mL [2]: 103%
Mutated/Wild type (%), TSH 1 ng/mL [2]: 88%
Mutated/Wild type (%), TSH 3 ng/mL [2]: 80%
% inhibition of TSH stimulation, TSH (2) run at the end of assay, mutated TSHR [3]: 22%
Cyclic AMP produced (pmol/mL), TSH 3 ng/mL, mutated TSHR [3]: 52.5 pmol/mL
Cyclic AMP produced (pmol/mL), TSH (2) 3 ng/mL run at the end of assay, mutated TSHR [3]: 41 pmol/mL
Mutated/wild type (%) of cyclic AMP produced; TSH 3 ng/mL [3]: 52%
Mutated/wild type (%) of cyclic AMP produced; TSH (2) 3 ng/mL, run at the end of assay [3]: 31.2%
% inhibition of TSH stimulation; TSH (2); Experiment 1 [4]: 0%
% inhibition of TSH stimulation; TSH (2); Experiment 2 [4]: 1%
Cyclic AMP produced; TSH 3 ng/mL; Experiment 1 [4]: 78.5 pmol/mL
Cyclic AMP produced; TSH 3 ng/mL; Experiment 2 [4]: 96.8 pmol/mL
Cyclic AMP produced; TSH (2); Experiment 1 [4]: 85.2 pmol/mL
Cyclic AMP produced; TSH (2); Experiment 2 [4]: 95.8 pmol/mL
Mutated/wild type (%) of cyclic AMP produced; TSH 3 ng/mL; Experiment 1 [4]: 114%
Mutated/wild type (%) of cyclic AMP produced; TSH 3 ng/mL; Experiment 2 [4]: 99%
Mutated/wild type (%) of cyclic AMP produced; TSH (2); Experiment 1 [4]: 115%
Mutated/wild type (%) of cyclic AMP produced; TSH (2); Experiment 2 [4]: 94%
% inhibition of TSH stimulation; TSH (2), run at the end of assay [5]: 0%
% inhibition of TSH stimulation; TSH (2), run at the end of assay; Experiment 1 [5]: 8%
% inhibition of TSH stimulation; TSH (2), run at the end of assay; Experiment 2 [5]: 0%
Cyclic AMP produced (pmol/mL), TSH 0.01 ng/mL [5]: 2.45 pmol/mL
Cyclic AMP produced (pmol/mL), TSH 0.01 ng/mL, Experiment 1 [5]: 1.86 pmol/mL
Cyclic AMP produced (pmol/mL), TSH 0.01 ng/mL, Experiment 2 [5]: 2.49 pmol/mL
Cyclic AMP produced (pmol/mL), TSH 0.03 ng/mL [5]: 4.78 pmol/mL
Cyclic AMP produced (pmol/mL), TSH 0.03 ng/mL, Experiment 1 [5]: 3.32 pmol/mL
Cyclic AMP produced (pmol/mL), TSH 0.03 ng/mL, Experiment 2 [5]: 5.12 pmol/mL
Cyclic AMP produced (pmol/mL), TSH 0.1 ng/mL [5]: 16.2 pmol/mL
Cyclic AMP produced (pmol/mL), TSH 0.1 ng/mL, Experiment 1 [5]: 14.6 pmol/mL
Cyclic AMP produced (pmol/mL), TSH 0.1 ng/mL, Experiment 2 [5]: 13.7 pmol/mL
Cyclic AMP produced (pmol/mL), TSH 0.3 ng/mL [5]: 44.3 pmol/mL
Cyclic AMP produced (pmol/mL), TSH 0.3 ng/mL, Experiment 1 [5]: 48.5 pmol/mL
Cyclic AMP produced (pmol/mL), TSH 0.3 ng/mL, Experiment 2 [5]: 39.9 pmol/mL
Cyclic AMP produced (pmol/mL), TSH 1 ng/mL [5]: 77.2 pmol/mL
Cyclic AMP produced (pmol/mL), TSH 1 ng/mL, Experiment 1 [5]: 91.2 pmol/mL
Cyclic AMP produced (pmol/mL), TSH 1 ng/mL, Experiment 2 [5]: 74.3 pmol/mL
Cyclic AMP produced (pmol/mL), TSH 3 ng/mL [5]: 95.5 pmol/mL
Cyclic AMP produced (pmol/mL), TSH 3 ng/mL, Experiment 1 [5]: 119 pmol/mL
Cyclic AMP produced (pmol/mL), TSH 3 ng/mL, Experiment 2 [5]: 88.3 pmol/mL
Cyclic AMP produced (pmol/mL), wild type TSHR, TSH 0.01 ng/mL [5]: 2.48 pmol/mL
Cyclic AMP produced (pmol/mL), wild type TSHR, TSH 0.01 ng/mL, Experiment 1 [5]: 2.6 pmol/mL
Cyclic AMP produced (pmol/mL), wild type TSHR, TSH 0.01 ng/mL, Experiment 2 [5]: 3.89 pmol/mL
Cyclic AMP produced (pmol/mL), wild type TSHR, TSH 0.03 ng/mL [5]: 4.62 pmol/mL
Cyclic AMP produced (pmol/mL), wild type TSHR, TSH 0.03 ng/mL, Experiment 1 [5]: 4.27 pmol/mL
Cyclic AMP produced (pmol/mL), wild type TSHR, TSH 0.03 ng/mL, Experiment 2 [5]: 5.52 pmol/mL
Cyclic AMP produced (pmol/mL), wild type TSHR, TSH 0.1 ng/mL [5]: 17.6 pmol/mL
Cyclic AMP produced (pmol/mL), wild type TSHR, TSH 0.1 ng/mL, Experiment 1 [5]: 10.9 pmol/mL
Cyclic AMP produced (pmol/mL), wild type TSHR, TSH 0.1 ng/mL, Experiment 2 [5]: 13.3 pmol/mL
Cyclic AMP produced (pmol/mL), wild type TSHR, TSH 0.3 ng/mL [5]: 40.4 pmol/mL
Cyclic AMP produced (pmol/mL), wild type TSHR, TSH 0.3 ng/mL, Experiment 1 [5]: 32.3 pmol/mL
Cyclic AMP produced (pmol/mL), wild type TSHR, TSH 0.3 ng/mL, Experiment 2 [5]: 35.4 pmol/mL
Cyclic AMP produced (pmol/mL), wild type TSHR, TSH 1 ng/mL [5]: 92.5 pmol/mL
Cyclic AMP produced (pmol/mL), wild type TSHR, TSH 1 ng/mL, Experiment 1 [5]: 85 pmol/mL
Cyclic AMP produced (pmol/mL), wild type TSHR, TSH 1 ng/mL, Experiment 2 [5]: 82.1 pmol/mL
Cyclic AMP produced (pmol/mL), wild type TSHR, TSH 3 ng/mL [5]: 104 pmol/mL
Cyclic AMP produced (pmol/mL), wild type TSHR, TSH 3 ng/mL, Experiment 1 [5]: 124 pmol/mL
Cyclic AMP produced (pmol/mL), wild type TSHR, TSH 3 ng/mL, Experiment 2 [5]: 91.7 pmol/mL
Cyclic AMP produced, wild type TSHR, TSH 0.01 ng/mL [5]: 1.41 pmol/mL
Cyclic AMP produced, wild type TSHR, TSH 0.03 ng/mL [5]: 1.99 pmol/mL
Cyclic AMP produced, wild type TSHR, TSH 0.1 ng/mL [5]: 5.54 pmol/mL
Cyclic AMP produced, wild type TSHR, TSH 0.3 ng/mL [5]: 16.3 pmol/mL
Cyclic AMP produced, wild type TSHR, TSH 1 ng/mL [5]: 44.2 pmol/mL
Cyclic AMP produced, wild type TSHR, TSH 3 ng/mL [5]: 53.9 pmol/mL
Substance: TSH (ligand)
